Measurements as given in patent publication US20170114111A1 (UNIVERSITY OF CAPE TOWN, published 2017).

Target: CD64 (human, UniProt P12314 16-374)
Experiment: cell-based or functional assay

Chain of CD64 (P12314 16-374): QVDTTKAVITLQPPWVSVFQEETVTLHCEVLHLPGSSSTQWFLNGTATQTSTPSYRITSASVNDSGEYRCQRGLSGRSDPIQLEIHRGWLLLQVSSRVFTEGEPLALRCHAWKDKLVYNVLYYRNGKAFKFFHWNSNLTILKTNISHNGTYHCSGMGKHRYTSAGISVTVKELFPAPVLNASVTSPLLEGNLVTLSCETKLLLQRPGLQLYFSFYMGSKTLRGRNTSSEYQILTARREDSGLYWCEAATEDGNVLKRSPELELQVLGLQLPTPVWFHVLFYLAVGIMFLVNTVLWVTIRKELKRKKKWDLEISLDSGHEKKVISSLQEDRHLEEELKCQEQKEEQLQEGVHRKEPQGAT

B1: H22-Ang GGRR/QGmut (other)
chain: DAAQPAMAQVQLVESGGGVVQPGRSLRLSCSSSGFIFSDNYMYWVRQAPGKGLEWVATISDGGSYTYYPDSVKGRFTISRDNSKNTLFLQMDSLRPEDTGVYFCARGYYRYEGAMDYWGQGTPVTVSSGGGGSGGGGSGGGGSDIQLTQSPSSLSASVGDRVTITCKSSQSVLYSSNQKNYLAWYQQKPGKAPKLLIYWASTRESGVPSRFSGSGSGTDFTFTISSLQPEDIATYYCHQYLSSWTFGQGTKLEIKAAALESRQDNSRYTHFLTQHYDAKPQGRDDRYCESIMRRRGLTSPCKDINTFIHGNKRSIKAICENKNGNPHRENLRISKSSFQVTTCKLHRRSPWPPCQYRATAGFRNVVVACENGLPVHLDGSIFRRPAEHEFRGGPEQKLISEEDLNSAVDHHHHHH
  IC50, XTT viability assay on IFNγ-stimulated CD64+ HL-60 cells: 4.2 nM
  IC50, XTT viability assay on activated human Mφ: 0.075 nM
  IC50, XTT viability assay on hIFNγ-stimulated HL-60 cells: 4.3 nM
